These are literature values, as cited in publication PMC2812830.

This data set has as its target LAT pY191 phosphopeptide pY191 peptide (Homo sapiens) (UniProt O43561). Put plainly: ITC.

In the case of Grb2 (from UniProt P62993), the dissociation constant (Kd) was 286 nM.

For orientation: Kd means the constant that tells how readily two partners part at equilibrium.
